Test results from patent US20250388669A1 (published 2025).

T1: B7H3 (human, UniProt Q5ZPR3 29-466, limits assumed)
T1 construct: Tumor associated antigen; also called huB7H3
T1 sequence (looked up): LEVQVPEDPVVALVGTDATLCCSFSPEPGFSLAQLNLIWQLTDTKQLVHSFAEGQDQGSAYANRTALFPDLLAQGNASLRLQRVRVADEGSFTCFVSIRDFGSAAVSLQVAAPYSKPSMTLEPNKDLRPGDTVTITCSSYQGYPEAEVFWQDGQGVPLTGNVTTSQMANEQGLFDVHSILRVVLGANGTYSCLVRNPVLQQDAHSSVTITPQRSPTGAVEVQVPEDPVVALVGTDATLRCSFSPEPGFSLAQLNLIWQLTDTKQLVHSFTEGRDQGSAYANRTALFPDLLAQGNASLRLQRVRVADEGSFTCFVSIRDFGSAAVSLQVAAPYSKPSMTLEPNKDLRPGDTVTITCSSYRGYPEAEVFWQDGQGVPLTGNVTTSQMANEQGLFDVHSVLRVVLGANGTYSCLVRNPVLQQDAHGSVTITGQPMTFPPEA

B1: Ly1963 (other)
chain 1: QVQLVQSGAEVKKPGASVKVSCKASGYTFTSYVMHWVRQKPGQGLEWIGYINPYNEGTESTDKFKGRATMTSDKSTSTVYMELSSLRSEDTAVYYCASIYYGYEGTYFGVWGQGTLVTVSSASTKGPSVFPLAPSSKSTSGGTAALGCLVKDYFPEPVTVSWNSGALTSGVHTFPAVLQSSGLYSLSSVVTVPSSSLGTQTYICNVNHKPSNTKVDKKVEPKSCGGGGSGGGGSGGGGSGGGGSEVQLVESGGGLVQPGGSLRLSCAASGFTFSTYAMNWVRQAPGKGLEWVGRIRSKYNNYATYYADSVKGRFTISRDDSKNSLYLQMNSLKTEDTAVYYCVRHGNFGNSYVSWFAYWGQGTLVTVSSGGGGSDKTHTCPPCPAPEAAGPSVFLFPPKPKDTLMISRTPEVTCVVVDVSHEDPEVKFNWYVDGVEVHNAKTKPREEQYNSTYRVVSVLTVLHQDWLNGKEYKCKVSNKALPAPIEKTISKAKGQPREPQVYTLPPSREEMTKNQVSLWCLVKGFYPSDIAVEWESNGQPENNYKTTPPVLDSDGSFFLYSKLTVDKSRWQQGNVFSCSVMHEALHNHYTQKSLSLSPGGGGGSGGGGSGGGGSGGGGSQVQLVQSGAEVKKPGASVKVSCKASGYTFAGFEMHWVRQAPGQGLEWMGAIDPKTGGTDYNQKFKDRVTMTRDTSISTAYMELSRLRSDDTAVYYCARDLGYFDVWGQGTLVTVSS
chain 2: QVQLVQSGAEVKKPGASVKVSCKASGYTFTSYVMHWVRQKPGQGLEWIGYINPYNEGTESTDKFKGRATMTSDKSTSTVYMELSSLRSEDTAVYYCASIYYGYEGTYFGVWGQGTLVTVSSASTKGPSVFPLAPSSKSTSGGTAALGCLVKDYFPEPVTVSWNSGALTSGVHTFPAVLQSSGLYSLSSVVTVPSSSLGTQTYICNVNHKPSNTKVDKKVEPKSCGGGGSGGGGSGGGGSGGGGSQAVVTQEPSLTVSPGGTVTLTCRSSTGAVTTSNYANWVQQKPGQAPRGLIGGTNKRAPWTPARFSGSLLGGKAALTITGAQAEDEADYYCALWYSNLWVFGGGTKLTVLGGGGSDKTHTCPPCPAPEAAGPSVFLFPPKPKDTLMISRTPEVTCVVVDVSHEDPEVKFNWYVDGVEVHNAKTKPREEQYNSTYRVVSVLTVLHQDWLNGKEYKCKVSNKALPAPIEKTISKAKGQPREPQVYTLPPSREEMTKNQVSLSCAVKGFYPSDIAVEWESNGQPENNYKTTPPVLDSDGSFFLVSKLTVDKSRWQQGNVFSCSVMHEALHNHYTQKSLSLSPGGGGGSGGGGSGGGGSGGGGSDIQMTQSPSSLSASVGDRVTITCRASQDIRSNLNWYQQKPGGAVKLLIYYTSRLHSGVPSRFSGSGSGTDYTLTISSLQPEDFATYFCQQSEKLPRTFGGGTKVEIR
light: EIVLTQSPATLSLSPGERATLSCRASSSVSYMHWYQQKPGQAPRPWIYATSNLASGIPARFSGSRSGTDYTLTISSLEPEDFAVYYCQQWSSNTLTFGGGTKVEIKRTVAAPSVFIFPPSDEQLKSGTASVVCLLNNFYPREAKVQWKVDNALQSGNSQESVTEQDSKDSTYSLSSTLTLSKADYEKHKVYACEVTHQGLSSPVTKSFNRGEC
B2: Ly2409 (bispecific antibody)
chain 1: QVTLKESGPALVKPTQTLTLTCTFSGFSLSTSGTCVSWIRQPPGKALEWLATICWEDSKGYNPSLKSRLTISKDTSKNQAVLTMTNMDPVDTATYYCARREDSGYFWFPYWGQGTLVTVSSASTKGPSVFPLAPSSKSTSGGTAALGCLVKDYFPEPVTVSWNSGALTSGVHTFPAVLQSSGLYSLSSVVTVPSSSLGTQTYICNVNHKPSNTKVDKKVEPKSCGGGGSGGGGSGGGGSGGGGSEVQLVESGGGLVQPGGSLRLSCAASGFTFTNYGLHWVRQAPGKGLEWVSSISPSGGVTYYRDSVKGRFTISRDNSKNTLYLQMNSLRAEDTAVYYCAKPFLGWGGANWIAHWGQGTLVTVSSGGGGSDKTHTCPPCPAPEAAGPSVFLFPPKPKDTLMISRTPEVTCVVVDVSHEDPEVKFNWYVDGVEVHNAKTKPREEQYNSTYRVVSVLTVLHQDWLNGKEYKCKVSNKALPAPIEKTISKAKGQPREPQVYTLPPSREEMTKNQVSLWCLVKGFYPSDIAVEWESNGQPENNYKTTPPVLDSDGSFFLYSKLTVDKSRWQQGNVFSCSVMHEALHNHYTQKSLSLSPG
chain 2: QVTLKESGPALVKPTQTLTLTCTFSGFSLSTSGTCVSWIRQPPGKALEWLATICWEDSKGYNPSLKSRLTISKDTSKNQAVLTMTNMDPVDTATYYCARREDSGYFWFPYWGQGTLVTVSSASTKGPSVFPLAPSSKSTSGGTAALGCLVKDYFPEPVTVSWNSGALTSGVHTFPAVLQSSGLYSLSSVVTVPSSSLGTQTYICNVNHKPSNTKVDKKVEPKSCGGGGSGGGGSGGGGSGGGGSDIQMTQSPSSLSASVGDRVTITCLASEDISNDLAWYQQKPGKAPKLLIYFVDRLLDGVPSRFSGSGSGTDFTLTISSLQPEDFATYYCQQSYKYPPTFGQGTKLEIKGGGGSDKTHTCPPCPAPEAAGPSVFLFPPKPKDTLMISRTPEVTCVVVDVSHEDPEVKFNWYVDGVEVHNAKTKPREEQYNSTYRVVSVLTVLHQDWLNGKEYKCKVSNKALPAPIEKTISKAKGQPREPQVYTLPPSREEMTKNQVSLSCAVKGFYPSDIAVEWESNGQPENNYKTTPPVLDSDGSFFLVSKLTVDKSRWQQGNVFSCSVMHEALHNRFTQKSLSLSPG
light: NIQMTQSPSSLSASVGDRVTITCKAGQNVNNYLAWYQQKPGKAPKVLIFNANSLQTGVPSRFSGSGSGTDFTLTISSLQPEDFATYYCQQYNSWPTFGGGTKVEIKRTVAAPSVFIFPPSDEQLKSGTASVVCLLNNFYPREAKVQWKVDNALQSGNSQESVTEQDSKDSTYSLSSTLTLSKADYEKHKVYACEVTHQGLSSPVTKSFNRGEC
notes: PD-1/CD40: two PD-1 Fabs, central CD40 Fv (TM559)
B3: Ly2415 (bispecific antibody, human IgG1, kappa)
chain 1: QVTLKESGPALVKPTQTLTLTCTFSGFSLSTSGTCVSWIRQPPGKALEWLATICWEDSKGYNPSLKSRLTISKDTSKNQAVLTMTNMDPVDTATYYCARREDSGYFWFPYWGQGTLVTVSSASTKGPSVFPLAPSSKSTSGGTAALGCLVKDYFPEPVTVSWNSGALTSGVHTFPAVLQSSGLYSLSSVVTVPSSSLGTQTYICNVNHKPSNTKVDKKVEPKSCDKTHTCPPCPAPEAAGPSVFLFPPKPKDTLMISRTPEVTCVVVDVSHEDPEVKFNWYVDGVEVHNAKTKPREEQYNSTYRVVSVLTVLHQDWLNGKEYKCKVSNKALPAPIEKTISKAKGQPREPQVYTLPPSREEMTKNQVSLWCLVKGFYPSDIAVEWESNGQPENNYKTTPPVLDSDGSFFLYSKLTVDKSRWQQGNVFSCSVMHEALHNHYTQKSLSLSPGGGGGSGGGGSGGGGSGGGGSEVQLVESGGGLVQPGGSLRLSCAASGFTFTNYGLHWVRQAPGKGLEWVSSISPSGGVTYYRDSVKGRFTISRDNSKNTLYLQMNSLRAEDTAVYYCAKPFLGWGGANWIAHWGQGTLVTVSS
chain 2: QVTLKESGPALVKPTQTLTLTCTFSGFSLSTSGTCVSWIRQPPGKALEWLATICWEDSKGYNPSLKSRLTISKDTSKNQAVLTMTNMDPVDTATYYCARREDSGYFWFPYWGQGTLVTVSSASTKGPSVFPLAPSSKSTSGGTAALGCLVKDYFPEPVTVSWNSGALTSGVHTFPAVLQSSGLYSLSSVVTVPSSSLGTQTYICNVNHKPSNTKVDKKVEPKSCDKTHTCPPCPAPEAAGPSVFLFPPKPKDTLMISRTPEVTCVVVDVSHEDPEVKFNWYVDGVEVHNAKTKPREEQYNSTYRVVSVLTVLHQDWLNGKEYKCKVSNKALPAPIEKTISKAKGQPREPQVYTLPPSREEMTKNQVSLSCAVKGFYPSDIAVEWESNGQPENNYKTTPPVLDSDGSFFLVSKLTVDKSRWQQGNVFSCSVMHEALHNRFTQKSLSLSPGGGGGSGGGGSGGGGSGGGGSDIQMTQSPSSLSASVGDRVTITCLASEDISNDLAWYQQKPGKAPKLLIYFVDRLLDGVPSRFSGSGSGTDFTLTISSLQPEDFATYYCQQSYKYPPTFGQGTKLEIK
light: B2 light
notes: PD-1/CD40: two PD-1 Fabs, terminal CD40 Fv (TM559)
B4: Ly2326 (bispecific antibody, human IgG1, kappa)
chain 1: QVQLQQSGAELVRPGSSVKISCKASGYAFSSYWMNWVKQRPGQGLEWIGQIWPGDGDTNYNGKFKGKATLTADESSSTAYMQLSSLASEDSAVYFCARRETTTVGRYYYAMDYWGQGTTVTVSSASTKGPSVFPLAPSSKSTSGGTAALGCLVKDYFPEPVTVSWNSGALTSGVHTFPAVLQSSGLYSLSSVVTVPSSSLGTQTYICNVNHKPSNTKVDKKVEPKSCDKTHTCPPCPAPEAAGPSVFLFPPKPKDTLMISRTPEVTCVVVDVSHEDPEVKFNWYVDGVEVHNAKTKPREEQYNSTYRVVSVLTVLHQDWLNGKEYKCKVSNKALPAPIEKTISKAKGQPREPQVYTLPPSREEMTKNQVSLWCLVKGFYPSDIAVEWESNGQPENNYKTTPPVLDSDGSFFLYSKLTVDKSRWQQGNVFSCSVMHEALHNHYTQKSLSLSPGGGGGSGGGGSGGGGSGGGGSQVQLVQSGAEVKKPGASVKVSCKASGYTFAGFEMHWVRQAPGQGLEWMGAIDPKTGGTDYNQKFKDRVTMTRDTSISTAYMELSRLRSDDTAVYYCARDLGYFDVWGQGTLVTVSS
chain 2: QVQLQQSGAELVRPGSSVKISCKASGYAFSSYWMNWVKQRPGQGLEWIGQIWPGDGDTNYNGKFKGKATLTADESSSTAYMQLSSLASEDSAVYFCARRETTTVGRYYYAMDYWGQGTTVTVSSASTKGPSVFPLAPSSKSTSGGTAALGCLVKDYFPEPVTVSWNSGALTSGVHTFPAVLQSSGLYSLSSVVTVPSSSLGTQTYICNVNHKPSNTKVDKKVEPKSCDKTHTCPPCPAPEAAGPSVFLFPPKPKDTLMISRTPEVTCVVVDVSHEDPEVKFNWYVDGVEVHNAKTKPREEQYNSTYRVVSVLTVLHQDWLNGKEYKCKVSNKALPAPIEKTISKAKGQPREPQVYTLPPSREEMTKNQVSLSCAVKGFYPSDIAVEWESNGQPENNYKTTPPVLDSDGSFFLVSKLTVDKSRWQQGNVFSCSVMHEALHNRFTQKSLSLSPGGGGGSGGGGSGGGGSGGGGSDIQMTQSPSSLSASVGDRVTITCRASQDIRSNLNWYQQKPGGAVKLLIYYTSRLHSGVPSRFSGSGSGTDYTLTISSLQPEDFATYFCQQSEKLPRTFGGGTKVEIR
light: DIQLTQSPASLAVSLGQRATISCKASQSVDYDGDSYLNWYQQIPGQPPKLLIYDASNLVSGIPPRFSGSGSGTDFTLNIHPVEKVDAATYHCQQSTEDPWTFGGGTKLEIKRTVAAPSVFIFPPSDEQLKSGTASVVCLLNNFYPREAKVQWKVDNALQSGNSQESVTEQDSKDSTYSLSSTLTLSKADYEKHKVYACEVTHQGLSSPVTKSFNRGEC
notes: CD19/CD137: two CD19 Fabs, terminal CD137 Fv

Key:
B7H3 = molecular target: T1, B7H3; experiment: FCM or ELISA
CD137 = molecular target: T2, CD137 (human, UniProt Q07011 24-186); experiment: CD137 binding by FCM or ELISA
T2 construct: Reporter assays used GS-H2-huCD137 cells expressing human CD137; also called 4-1BB/CD137; huCD137

PD-1 = molecular target: T3, PD-1 (human, UniProt Q15116 25-167, limits assumed); experiment: FCM or ELISA
T3 construct: The reporter assay used Jurkat T cells expressing human PD-1
T3 sequence (Q15116 25-167 limits assumed): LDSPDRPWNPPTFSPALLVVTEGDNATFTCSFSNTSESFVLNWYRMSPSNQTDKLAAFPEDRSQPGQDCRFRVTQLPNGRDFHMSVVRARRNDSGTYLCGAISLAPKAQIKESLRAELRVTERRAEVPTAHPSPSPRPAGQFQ

Row | Binder | binding result (B7H3) | binding result (CD137) | binding result (PD-1)
1 | B1 | binds | binds | –
2 | B2 | – | – | binds
3 | B3 | – | – | binds
4 | B4 | – | binds | –
